Data published in US20200369776A1 (ADAGENE, published 2020).
Where a chain is given by its changes, count along the chain named. In names and notes the source's numbering stands. Blank lines part the entries; values can stand above or below the binder they belong to.

Tests used:
Assay in all cases: FACS, HEK293F
[1] = biological target: human CD137 mutant Hu_PW135AA on HEK293F cells (human, UniProt Q07011 18-255)
Procedure: (§1) Transfected cells were washed in pre-chilled staining buffer (PBS supplemented with 2% FBS), then incubated with 100 nM test antibodies for 1 hr on ice. […] Samples were washed once with staining buffer prior to analysis by flow cytometry.
(§2) To determine the binding regions of the tested antibodies at amino acid residue level, a series of mutations (Table 5) were made at the extracellular domain of human CD137. These CD137 mutation plasmids were used to transfect HEK293F cells.

[2] = biological target: human CD137 mutant Hu_GT150AA on HEK293F cells (human, UniProt Q07011 18-255)
Procedure: as §1, §2

[3] = biological target: T1, human CD137 mutant Hu_FSS53AAA on HEK293F cells (human, UniProt Q07011 18-255)
T1 chain: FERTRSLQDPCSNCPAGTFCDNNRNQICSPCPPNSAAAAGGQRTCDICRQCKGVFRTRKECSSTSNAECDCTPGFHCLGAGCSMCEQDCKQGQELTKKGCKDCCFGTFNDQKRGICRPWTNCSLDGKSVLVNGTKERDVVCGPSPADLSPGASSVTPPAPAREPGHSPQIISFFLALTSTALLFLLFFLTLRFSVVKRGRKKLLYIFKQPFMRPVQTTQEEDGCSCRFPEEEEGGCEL
Procedure: as §1, §2

[4] = biological target: human CD137 mutant Hu_FN125AA on HEK293F cells (human, UniProt Q07011 18-255)
Procedure: as §1, §2

binding result [1]: binds | binding result [2]: binds
B1: AG10058 (antibody, human IgG4 S228P, kappa, V domains shown)
VH: EVQLVESGGGLVQPGGSLRLSCAASGFSLSTSGVGVGWIRQAPGKGLEWLALIDWDDDKYYSPSLKSRLTISRDNSKNTLYLQLNSLRAEDTAVYYCARGGSDTVLGDWFAYWGQGTLVTVSS
VL: DIQLTQSPSSLSASVGDRVTITCRASQSVSPYLAWYQQKPGKAPKLLIYDASSLESGVPSRFSGSGSGTDFTLTISSLQPEDFATYYCQQGYSLWTFGQGTKVEIKR
notes: IgG4 (S241P)

binding result [1]: binds | binding result [2]: binds
B2: AG10059 (antibody, human IgG4 S228P, kappa, V domains shown)
VH: EVQLVESGGGLVQPGGSLRLSCAASGYSITSGHYWAWIRQAPGKGLEWVSSISGYGSTTYYADSVKGRFTISRDNSKNTLYLQLNSLRAEDTAVYYCARGGSDAVLGDWFAYWGQGTLVTVSS
VL: B1 VL with S28G, V29I, S30G, P31S, Y32F, S53N, S56T, S93Y
notes: IgG4 (S241P)

binding result [3]: binds | binding result [4]: binds | binding result [1]: binds | binding result [2]: binds
B3: reference antibody AC1121 (antibody, V domains shown)
VH: QVQLQQWGAGLLKPSETLSLTCAVYGGSFSGYYWSWIRQSPEKGLEWIGEINHGGYVTYNPSLESRVTISVDTSKNQFSLKLSSVTAADTAVYYCARDYGPGNYDWYFDLWGRGTLVTVSS
VL: EIVLTQSPATLSLSPGERATLSCRASQSVSSYLAWYQQKPGQAPRLLIYDASNRATGIPARFSGSGSGTDFTLTISSLEPEDFAVYYCQQRSNWPPALTFGGGTKVEIK
